The values that follow come from paper PMC4805503 (Traffic (Copenhagen, Denmark), 2016).

Some results are limits rather than exact numbers.

For one experiment, the target named is tepsin (Homo sapiens) (UniProt Q96N21). To be noted: cited from earlier work.
Experiment [1] deals with T1, AP4 β4 C-terminal appendage domain (residues 612–739), wild type (UniProt Q9Y6B7 612-739).
T1 sequence (looked up): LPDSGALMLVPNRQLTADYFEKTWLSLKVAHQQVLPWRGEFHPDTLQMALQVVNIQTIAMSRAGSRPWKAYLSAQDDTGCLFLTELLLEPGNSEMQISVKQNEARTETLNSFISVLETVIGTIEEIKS
The experiment in a line: ITC.

For experiment [2], the target named is T1, AP4 β4 C-terminal appendage domain …. The experiment in a line: pull-down.

As to “AP4 ε appendage domain (from UniProt Q9UPM8)”, in the experiment with tepsin (Homo sapiens), the Kd is 3000 nM.

B1: tepsin C-terminal fragment (residues 450–500), GST removed (domain or fragment, UniProt Q96N21 450-500, looked up)
chain: PGGTDSPKRGPSSCAWSRDSLFAGMELVACPRLVGAGAAAGESCPDAPRAP
For the molecule B1, in experiment [1], the Kd came to 2900 nM and the “stoichiometry N” value worked out at 1.

B2: tepsin fragment (residues 450–500) L470S/F471S, GST removed (domain or fragment, UniProt Q96N21 450-500, looked up)
chain: PGGTDSPKRGPSSCAWSRDSSSAGMELVACPRLVGAGAAAGESCPDAPRAP
With B2, the Kd in experiment [1] is above 300000 nM.

B3: tepsin fragment (residues 450–500) G473I/M474Q, GST removed (domain or fragment, UniProt Q96N21 450-500, looked up)
chain: PGGTDSPKRGPSSCAWSRDSLFAIQELVACPRLVGAGAAAGESCPDAPRAP
The molecule B3 registered a Kd in experiment [1] above 300000 nM.

B4: tepsin fragment (residues 450–500) L476S/V477S, GST removed (domain or fragment, UniProt Q96N21 450-500, looked up)
chain: PGGTDSPKRGPSSCAWSRDSLFAGMESSACPRLVGAGAAAGESCPDAPRAP
Consider B4, for which, in experiment [1], the “fold weaker binding than wild type” value is around 15 fold.

B5: GST-tepsin (residues 450–525) (domain or fragment, UniProt Q96N21 450-525, looked up)
chain: PGGTDSPKRGPSSCAWSRDSLFAGMELVACPRLVGAGAAAGESCPDAPRAPQTSSQRTAAKEPPGSEPSAFAFLNA
Take B5: in experiment [2], the binding result is given as “binds”.

Usually Kd stands for the constant that tells how readily two partners part at equilibrium. The stoichiometry N is the number of molecules, sites or subunits per partner or assembly.
